{"source": "patent US11819021B2", "about": "“Peptides and methods and uses thereof for modulating anaphase promoting complex (APC) activity” (University of Saskatchewan, priority 2017, dated 2023)", "key": {"Apc10": {"target": "T1, Apc10 (Saccharomyces cerevisiae, UniProt P53068)", "T1 construct": "expressed in transfected cells; host or cells: yeast Y2H cells", "T1 sequence (P53068 1-250)": "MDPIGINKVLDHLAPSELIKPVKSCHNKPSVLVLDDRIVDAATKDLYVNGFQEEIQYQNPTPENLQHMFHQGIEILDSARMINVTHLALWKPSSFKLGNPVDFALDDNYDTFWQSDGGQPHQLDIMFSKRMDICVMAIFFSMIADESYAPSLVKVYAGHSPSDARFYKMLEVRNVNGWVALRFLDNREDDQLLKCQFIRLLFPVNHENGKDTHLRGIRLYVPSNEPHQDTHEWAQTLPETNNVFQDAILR", "experiment": "Yeast 2-hybrid (Y2H) binding of peptide prey to Apc10 bait", "details": "galactose-inducible Trx-scaffold peptide prey", "protocol": "(§1) The reverse genetic screen utilized a yeast 2-hybrid (Y2H) protocol that selected for peptides that bound to the APC subunits Apc5 or Apc10 (see FIG. 5 for APC structure), to assess whether peptide-binding might modify APC function. Peptides that bound APC subunits were then assayed for those that suppressed APC mutant defects.\nA library of random small peptides were cloned into a Thioredoxin (Trx) scaffold (see FIG. 6 for Trx-aptamer structure) and expressed from a galactose-inducible Y2H prey vector in cells expressing the Apc10 bait vector (the modified Apc10 is still part of the complete APC complex). Six peptides that reproducibly interacted with the Apc10 bait construct in Y2H assays were identified (FIG. 1A) and were examined further.\n(§2) Random small peptides were cloned into the TrxA scaffold (library provided by R. Geyer, U of S) and expressed from a galactose-inducible Y2H prey vector in cells harboring either APC5 or APC10 Y2H bait vectors (APC5/APC10 bait constructs complement APC mutant defects).\n(§3) Over 100 peptides that bound either Apc5 or Apc10 were recovered from millions screened. Six peptides that reproducibly interacted with the Apc10 bait construct in Y2H assays were examined further. Vectors expressing these 6 peptides were transformed into APC mutant cells and assessed for ts growth."}, "[1]": {"system": "APC mutant (apc5 temperature sensitive mutant and/or apc10Δ mutant)", "experiment": "Viability/growth of APC mutant yeast cells", "type": "cell-based", "protocol": "A. apc5^CA cells expressing small peptides were assayed for replicative life span (RLS). B. Cells expressing HTZ1 were grown under stress conditions. HTZ1 expression, even at low levels, suppresses apc5^CA and apc10Δ defects. The cells shown were transformed with either an empty vector or GAL inducible HTZ1. On 2% glucose, the construct is weakly expressed, and this is enough to increase growth of APC mutants at 30° C.\nExamples of yeast cells with defective anaphase promoting complex (APC) function include apc5 and apc10 mutants. An example of an apc5 mutant is the apc5 temperature sensitive mutant described herein. An example of an apc10 mutant is the apc10 deletion mutant described herein.\nas §1, §3"}, "yeast proteins": {"system": "yeast proteins", "experiment": "Yeast 2-hybrid assay for proteins interacting with the peptides", "type": "binding"}, "Apc5": {"target": "T2, Apc5 (Saccharomyces cerevisiae, UniProt Q08683)", "T2 construct": "expressed in transfected cells; host or cells: yeast Y2H cells", "T2 sequence (Q08683 1-685)": "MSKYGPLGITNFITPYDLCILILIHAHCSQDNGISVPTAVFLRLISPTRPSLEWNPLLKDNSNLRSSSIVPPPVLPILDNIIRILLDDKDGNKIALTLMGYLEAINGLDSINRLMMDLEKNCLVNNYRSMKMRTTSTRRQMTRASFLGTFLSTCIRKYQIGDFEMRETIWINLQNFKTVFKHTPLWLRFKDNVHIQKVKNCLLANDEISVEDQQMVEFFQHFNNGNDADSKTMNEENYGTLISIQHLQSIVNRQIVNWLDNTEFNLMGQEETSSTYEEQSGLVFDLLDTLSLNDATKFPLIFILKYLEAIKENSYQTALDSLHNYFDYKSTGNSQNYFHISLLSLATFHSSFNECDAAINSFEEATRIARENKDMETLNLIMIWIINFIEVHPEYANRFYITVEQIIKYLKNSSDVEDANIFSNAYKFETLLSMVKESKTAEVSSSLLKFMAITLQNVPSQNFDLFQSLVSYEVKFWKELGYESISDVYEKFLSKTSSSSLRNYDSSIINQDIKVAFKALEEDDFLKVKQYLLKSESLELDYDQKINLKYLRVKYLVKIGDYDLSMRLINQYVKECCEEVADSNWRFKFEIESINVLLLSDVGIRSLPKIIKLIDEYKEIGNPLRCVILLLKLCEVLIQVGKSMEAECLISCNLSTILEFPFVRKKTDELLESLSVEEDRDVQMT", "experiment": "Yeast 2-hybrid (Y2H) binding of peptide prey to Apc5 bait", "details": "galactose-inducible Trx-scaffold peptide prey", "protocol": "as §1, §2, §3"}}, "note": "“Also recorded” adds a separate entry of the source.", "data": [{"sequence": "RRCLSIRTENLAWEGKFLRV [50-1]", "values": [{"measurement": "Binds Apc10 in a yeast 2 hybrid assay", "setting": "Apc10", "value": "Binds Apc10"}, {"measurement": "Binds Apc10 in a yeast 2 hybrid assay", "setting": "Apc10; listed as SEQ ID NO: 9", "value": "binds Apc10"}, {"measurement": "Viability of an APC mutant", "setting": "[1]", "value": "increases the viability"}, {"measurement": "Proteins identified as interacting in a yeast 2 hybrid assay", "setting": "yeast proteins", "value": "Identified as interacting with Pxa1,; also recorded: Rrp12, and Hfm1 in a yeast 2-"}]}, {"sequence": "PSYNTIKYHETHGGRHPRRQPKRPI [3-1]", "values": [{"measurement": "Binds Apc10 in a yeast 2 hybrid assay", "setting": "Apc10", "value": "Binds Apc10"}, {"measurement": "Binds Apc10 in a yeast 2 hybrid assay", "setting": "Apc10; listed as SEQ ID NO. 5", "value": "binds Apc10"}, {"measurement": "Viability of an APC mutant", "setting": "[1]", "value": "increases the viability"}, {"measurement": "Proteins identified as interacting in a yeast 2 hybrid assay", "setting": "yeast proteins", "value": "Identified as interacting with Sld5,; also recorded: Hms2, Gnt1 and Vnx1 in a yeast"}]}, {"sequence": "SKWTWRMCMSWTVDRFAPVPWP [24-1]", "values": [{"measurement": "Viability of an APC mutant", "setting": "[1]", "value": "increases the viability"}, {"measurement": "Binds Apc5 in a yeast 2 hybrid assay", "setting": "Apc5", "value": "Binds Apc5"}, {"measurement": "Binds Apc5 in a yeast 2 hybrid assay", "setting": "Apc5; listed as SEQ ID NO: 7", "value": "binds Apc5"}]}, {"sequence": "GALKEVCICIVESVGGEVFSGP [compound 4]", "values": [{"measurement": "Viability of an APC mutant", "setting": "[1]", "value": "increases the viability"}, {"measurement": "Binds Apc5 in a yeast 2 hybrid assay", "setting": "Apc5", "value": "Binds Apc5"}, {"measurement": "Binds Apc5 in a yeast 2 hybrid assay", "setting": "Apc5; listed as SEQ ID NO. 6", "value": "binds Apc5"}, {"measurement": "Proteins identified as interacting in a yeast 2 hybrid assay", "setting": "yeast proteins", "value": "Identified as interacting with Hxt2,; also recorded: Mad2, Ubc7, Rpp2, Kap122, Sfa1,; also recorded: Oac1 and Vps13 in a yeast 2-"}]}, {"sequence": "CECLETETFHPITRHLIVPV [9-5]", "values": [{"measurement": "Viability of an APC mutant", "setting": "[1]", "value": "increases the viability"}, {"measurement": "Binds Apc5 in a yeast 2 hybrid assay", "setting": "Apc5", "value": "Binds Apc5"}, {"measurement": "Binds Apc5 in a yeast 2 hybrid assay", "setting": "Apc5; listed as SEQ ID NO. 3", "value": "binds Apc5"}, {"measurement": "Proteins identified as interacting in a yeast 2 hybrid assay", "setting": "yeast proteins", "value": "Interacts with Die2, Tim44, Yrm1"}]}, {"sequence": "GRMLMTYLMYFMVLWVPRPWGPPL [1-8]", "values": [{"measurement": "Binds Apc10 in a yeast 2 hybrid assay", "setting": "Apc10", "value": "Binds Apc10"}, {"measurement": "Binds Apc10 in a yeast 2 hybrid assay", "setting": "Apc10; listed as SEQ ID NO: 8", "value": "binds Apc10"}, {"measurement": "Viability of an APC mutant", "setting": "[1]", "value": "increases the viability"}]}]}
